Results reported in PMC9304779, “Biochemical characterization of the first step in sulfonolipid biosynthesis in Alistipes finegoldii” (The Journal of Biological Chemistry, 2022).
Values belong to the compound of their own block, whether it stands above or below them.

Key:
[1] = target: T1, SulA (cysteate acyl-ACP transferase) (Alistipes finegoldii, UniProt I3YKQ4); test: X-ray crystal structure […] Å (SeMet-SulA); UV-Vis […] nm internal aldimine; type: binding; settings: covalent, internal aldimine at Lys251
T1 construct: gene Alfi_1224
T1 sequence (I3YKQ4 1-423): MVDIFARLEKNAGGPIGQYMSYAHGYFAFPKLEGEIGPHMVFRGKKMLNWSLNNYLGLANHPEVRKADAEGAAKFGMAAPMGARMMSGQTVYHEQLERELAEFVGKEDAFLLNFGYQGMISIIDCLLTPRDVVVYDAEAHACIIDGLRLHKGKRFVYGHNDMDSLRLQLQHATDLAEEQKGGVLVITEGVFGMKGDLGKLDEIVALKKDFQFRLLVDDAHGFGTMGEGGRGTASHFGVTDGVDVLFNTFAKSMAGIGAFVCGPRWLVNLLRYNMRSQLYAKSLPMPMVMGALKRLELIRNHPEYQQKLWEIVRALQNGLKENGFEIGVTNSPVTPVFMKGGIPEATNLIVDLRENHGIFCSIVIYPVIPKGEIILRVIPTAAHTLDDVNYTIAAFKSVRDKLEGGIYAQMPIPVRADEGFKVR

[2] = target: cysteate acyl-ACP transferase (SulA), His-tagged (Alistipes finegoldii) (UniProt I3YKQ4)
[3] = target: T2, SulA (cysteate acyl-ACP transferase) (Alistipes finegoldii, UniProt I3YKQ4, K281A); test: UV-Vis spectral titration (external aldimine, A430); type: binding
T2 construct: gene Alfi_1224
T2 sequence (I3YKQ4 1-423 K281A): T1 sequence (I3YKQ4 1-423)
Excerpt: UV-Vis spectral titration (external aldimine, A430) on SulA (cysteate acyl-ACP transferase) | SulA(K281A) bound cysteate and formed the PLP-cysteate external aldimine normally

[4] = target: T1, SulA (cysteate acyl-ACP transferase); test: as above; type: binding
[5] = target: cysteate acyl-ACP transferase (SulA), His-tagged (Alistipes finegoldii) (UniProt I3YKQ4); test: SEC; calibrated HiLoad 16/600 Superdex 200 column, 200 mM NaCl, 20 mM Tris, pH 8.0; single 85 kDa species against standards
[6] = target: cysteate acyl-ACP transferase (SulA), His-tagged (Alistipes finegoldii) (UniProt I3YKQ4); test: AUC; sedimentation velocity, 150 mM NaCl, 1 mM DTT, 20 mM potassium phosphate buffer, pH 7.5, 20 °C, 50,000 rpm, interference optics, c(s) in SEDFIT
[7] = target: cysteate acyl-ACP transferase (SulA), His-tagged (Alistipes finegoldii) (UniProt I3YKQ4); test: as above; remark: listed apart in the source

Compound: Cc1ncc(COP(=O)(O)O)c(C=O)c1O [PLP]
X-ray crystal structure 2.9 Å (SeMet-SulA); UV-Vis 390 nm internal aldimine [1]: definitively identifies Lys251 as the PLP attachment site

SulA enzyme activity (formation of 3-keto[14C]capnine, TLC) against 0-200 μM [14C]16:0-ACP with 100 mM cysteate; K0.5 of an allosteric sigmoidal fit [2]: 26.7 µM
Compound: [14C]16:0-acyl carrier protein (from UniProt P0A6A8 1-78) (natural protein)

Compound: N[C@@H](CS(=O)(=O)O)C(=O)O [cysteate]
Kd [3]: 6.11 ± 1.1 mM
Kd [4]: 4.86 ± 0.08 mM

stoichiometry N [5]: 2
stoichiometry N [6]: 4
stoichiometry N [7]: 2
Compound: cysteate acyl-ACP transferase (SulA), His-tagged (from UniProt I3YKQ4 1-423) (enzyme)
